In data set [1] the target is T1, OsdR~P (phosphorylated with acetyl phosphate) (Streptomyces coelicolor) (UniProt Q9RI42).
T1 sequence: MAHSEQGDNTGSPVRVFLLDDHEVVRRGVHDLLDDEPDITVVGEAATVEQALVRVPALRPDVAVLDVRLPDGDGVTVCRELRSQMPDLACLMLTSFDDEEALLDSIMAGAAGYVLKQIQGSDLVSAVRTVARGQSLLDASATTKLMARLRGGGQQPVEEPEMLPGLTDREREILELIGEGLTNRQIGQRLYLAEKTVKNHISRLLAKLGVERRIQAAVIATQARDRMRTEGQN
As to the kind of experiment: EMSA. Conditions: AcP-phosphorylated; EMSA with 32P-labeled probes, 20 fmol DNA (50-mers), uM OsdR; AcP phosphorylation; buffer, pH, temperature not given (cited method).

The next data set addresses T2, OsdR (SCO0204) (Streptomyces coelicolor, UniProt Q9RI42).
T2 construct: His6-tagged, from plasmid pET0204 in E. coli BL21(DE3), Ni-NTA purified
T2 sequence (Q9RI42 1-233): T1 sequence
As to the kind of experiment: in vitro phosphorylation by AcP, read out by EMSA (DNA binding versus nonphosphorylated OsdR). It counts as biochemical. Conditions: phosphor donor; covalent phosphorylation; indirect read-out.

The molecule SCO2637 promoter had a binding signal (fold lower affinity than other targets) in data set [1] of 2.

Take `CC(=O)OP(=O)(O)O` [acetyl phosphate]: the “in vitro phosphorylation by AcP, read out by EMSA (DNA binding versus nonphospho)” value on OsdR (SCO0204) was “OsdR~P was obtained after AcP phosphorylation in vitro”.
